Laboratory results from EP4796128A1, “ANTI-C-MET ANTIBODY-DRUG CONJUGATE COMPRISING CAMPTOTHECIN DERIVATIVE” (Celltrion, Inc., priority 2023, dated 2025).
Read-outs that look alike come from different tables or passages of the source. Non-standard residues stand in square brackets, D forms with d. Residues, ends and D or L forms follow the SMILES beside them. *: point of attachment. Dolaproine = CO[C@@H]([C@@H]1CCCN1)[C@@H](C)C(=O)O; Dil = CC[C@H](C)[C@H](NC)[C@@H](CC(=O)O)OC; X1 = C[C@@H](N*)[C@@H](O)c1ccccc1; NMeV = CN[C@H](C(=O)O)C(C)C

How the values were obtained:
T47D = assay: cells; type: cell-based; settings: Homo sapiens, 144 h
SNU-5 = assay: In-vitro cell viability assay (CellTiter-Glo); type: cell-based; settings: Homo sapiens
NCI-H1573 = assay: In-vitro cell viability assay (CellTiter-Glo); type: cell-based; settings: Homo sapiens
HT29 = assay: In-vitro cell viability assay (CellTiter-Glo); type: cell-based; settings: Homo sapiens, HT-29, 144 h
NCI-H1975 = assay: In-vitro cell viability assay (CellTiter-Glo); type: cell-based; settings: Homo sapiens
recombinant human c-Met [1] = target: T1, recombinant human c-Met (human, UniProt P08581 25-932); assay: ELISA on recombinant human c-Met
T1 construct: Recombinant protein used in ELISA and BLI; also called human c-MET protein; human-derived c-Met protein
T1 sequence (P08581 25-932 limits assumed): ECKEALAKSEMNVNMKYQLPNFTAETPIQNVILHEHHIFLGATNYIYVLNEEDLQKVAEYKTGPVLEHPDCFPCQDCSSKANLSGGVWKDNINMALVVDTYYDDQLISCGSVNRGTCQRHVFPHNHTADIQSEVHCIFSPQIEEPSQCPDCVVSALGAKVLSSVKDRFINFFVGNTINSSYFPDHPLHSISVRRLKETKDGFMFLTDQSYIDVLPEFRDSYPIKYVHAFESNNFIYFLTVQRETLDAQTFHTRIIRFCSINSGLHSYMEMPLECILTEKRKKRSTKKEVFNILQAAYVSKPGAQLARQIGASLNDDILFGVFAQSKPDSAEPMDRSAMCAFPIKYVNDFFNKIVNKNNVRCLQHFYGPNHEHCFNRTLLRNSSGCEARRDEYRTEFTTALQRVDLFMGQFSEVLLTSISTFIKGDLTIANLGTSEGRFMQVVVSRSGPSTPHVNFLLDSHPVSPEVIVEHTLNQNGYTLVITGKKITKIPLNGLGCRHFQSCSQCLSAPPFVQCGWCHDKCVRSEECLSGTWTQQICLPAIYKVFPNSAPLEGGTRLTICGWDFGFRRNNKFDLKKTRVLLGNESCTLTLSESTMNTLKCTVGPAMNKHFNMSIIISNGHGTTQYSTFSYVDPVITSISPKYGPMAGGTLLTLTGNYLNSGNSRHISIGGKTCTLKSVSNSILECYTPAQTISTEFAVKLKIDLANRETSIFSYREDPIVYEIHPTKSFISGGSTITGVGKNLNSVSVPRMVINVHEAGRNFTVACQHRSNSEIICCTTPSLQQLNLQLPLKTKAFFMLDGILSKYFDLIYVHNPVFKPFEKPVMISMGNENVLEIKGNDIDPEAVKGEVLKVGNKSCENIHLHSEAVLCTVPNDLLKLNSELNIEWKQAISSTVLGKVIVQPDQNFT

[2] = target: T2, monkey c-Met (cynomolgus c-Met) (monkey (cynomolgus), UniProt A0A2K5UM36 25-932); assay: ELISA on monkey (cynomolgus) c-Met
T2 construct: Recombinant protein used in ELISA and BLI; also called monkey-derived c-MET protein; recombinant monkey c-Met
T2 sequence (A0A2K5UM36 entry or part of it limits assumed, form in doubt): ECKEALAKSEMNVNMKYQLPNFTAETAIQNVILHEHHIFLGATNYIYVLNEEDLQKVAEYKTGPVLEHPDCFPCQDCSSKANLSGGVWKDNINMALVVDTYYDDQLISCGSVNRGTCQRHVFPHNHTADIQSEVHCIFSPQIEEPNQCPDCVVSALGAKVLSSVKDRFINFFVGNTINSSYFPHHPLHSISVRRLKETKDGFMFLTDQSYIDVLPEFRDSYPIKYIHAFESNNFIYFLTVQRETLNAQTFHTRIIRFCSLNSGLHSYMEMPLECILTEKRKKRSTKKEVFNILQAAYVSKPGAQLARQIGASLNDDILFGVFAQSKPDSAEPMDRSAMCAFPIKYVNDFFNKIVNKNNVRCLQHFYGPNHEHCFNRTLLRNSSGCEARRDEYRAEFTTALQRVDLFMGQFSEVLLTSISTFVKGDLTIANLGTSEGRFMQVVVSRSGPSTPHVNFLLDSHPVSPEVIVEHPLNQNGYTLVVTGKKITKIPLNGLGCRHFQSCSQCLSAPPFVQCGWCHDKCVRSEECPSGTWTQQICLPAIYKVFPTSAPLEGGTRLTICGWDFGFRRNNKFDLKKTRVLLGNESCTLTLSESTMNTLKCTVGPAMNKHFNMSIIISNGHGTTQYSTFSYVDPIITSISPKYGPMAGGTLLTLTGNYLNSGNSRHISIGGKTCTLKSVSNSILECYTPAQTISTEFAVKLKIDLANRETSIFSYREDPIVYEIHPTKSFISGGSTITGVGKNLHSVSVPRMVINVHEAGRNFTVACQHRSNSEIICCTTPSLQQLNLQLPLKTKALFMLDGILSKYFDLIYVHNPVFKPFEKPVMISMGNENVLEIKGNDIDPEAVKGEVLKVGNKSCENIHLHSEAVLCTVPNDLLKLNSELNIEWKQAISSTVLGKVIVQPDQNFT

c-Met derived from mice = target: T3, c-Met derived from mice (mice, UniProt P16056 25-931, limits assumed); assay: ELISA, cross-reactivity test with diluted M01
T3 construct: Antigen of the cross-reactivity ELISA; also called mouse c-Met
T3 sequence (P16056 25-931 limits assumed): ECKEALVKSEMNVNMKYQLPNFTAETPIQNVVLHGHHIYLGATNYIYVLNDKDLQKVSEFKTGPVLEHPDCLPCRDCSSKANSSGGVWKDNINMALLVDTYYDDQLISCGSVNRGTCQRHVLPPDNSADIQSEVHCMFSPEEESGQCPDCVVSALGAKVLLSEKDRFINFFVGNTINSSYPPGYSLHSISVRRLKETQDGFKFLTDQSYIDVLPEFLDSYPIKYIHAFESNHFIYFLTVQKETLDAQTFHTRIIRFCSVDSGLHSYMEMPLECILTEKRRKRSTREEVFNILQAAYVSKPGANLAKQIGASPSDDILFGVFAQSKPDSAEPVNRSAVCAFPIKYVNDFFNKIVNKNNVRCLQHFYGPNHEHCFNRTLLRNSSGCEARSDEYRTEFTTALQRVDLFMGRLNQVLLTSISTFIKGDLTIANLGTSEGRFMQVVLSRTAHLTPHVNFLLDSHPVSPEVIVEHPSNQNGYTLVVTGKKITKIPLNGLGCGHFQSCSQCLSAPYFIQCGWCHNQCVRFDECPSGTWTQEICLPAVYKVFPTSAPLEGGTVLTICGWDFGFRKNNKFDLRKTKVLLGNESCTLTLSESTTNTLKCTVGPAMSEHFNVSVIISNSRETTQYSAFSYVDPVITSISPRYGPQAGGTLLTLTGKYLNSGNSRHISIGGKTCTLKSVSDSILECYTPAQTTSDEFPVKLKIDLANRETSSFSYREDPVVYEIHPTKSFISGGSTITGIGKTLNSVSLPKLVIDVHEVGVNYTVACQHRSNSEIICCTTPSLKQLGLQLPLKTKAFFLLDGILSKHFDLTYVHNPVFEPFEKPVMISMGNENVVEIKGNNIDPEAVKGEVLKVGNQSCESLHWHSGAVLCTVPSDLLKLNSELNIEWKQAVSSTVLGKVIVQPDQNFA

c-Met derived from rats = target: T4, c-Met derived from rats (rats, UniProt P97523 25-935, limits assumed); assay: ELISA, cross-reactivity test with diluted M01
T4 construct: Antigen of the cross-reactivity ELISA; also called rat c-Met
T4 sequence (P97523 25-935 limits assumed): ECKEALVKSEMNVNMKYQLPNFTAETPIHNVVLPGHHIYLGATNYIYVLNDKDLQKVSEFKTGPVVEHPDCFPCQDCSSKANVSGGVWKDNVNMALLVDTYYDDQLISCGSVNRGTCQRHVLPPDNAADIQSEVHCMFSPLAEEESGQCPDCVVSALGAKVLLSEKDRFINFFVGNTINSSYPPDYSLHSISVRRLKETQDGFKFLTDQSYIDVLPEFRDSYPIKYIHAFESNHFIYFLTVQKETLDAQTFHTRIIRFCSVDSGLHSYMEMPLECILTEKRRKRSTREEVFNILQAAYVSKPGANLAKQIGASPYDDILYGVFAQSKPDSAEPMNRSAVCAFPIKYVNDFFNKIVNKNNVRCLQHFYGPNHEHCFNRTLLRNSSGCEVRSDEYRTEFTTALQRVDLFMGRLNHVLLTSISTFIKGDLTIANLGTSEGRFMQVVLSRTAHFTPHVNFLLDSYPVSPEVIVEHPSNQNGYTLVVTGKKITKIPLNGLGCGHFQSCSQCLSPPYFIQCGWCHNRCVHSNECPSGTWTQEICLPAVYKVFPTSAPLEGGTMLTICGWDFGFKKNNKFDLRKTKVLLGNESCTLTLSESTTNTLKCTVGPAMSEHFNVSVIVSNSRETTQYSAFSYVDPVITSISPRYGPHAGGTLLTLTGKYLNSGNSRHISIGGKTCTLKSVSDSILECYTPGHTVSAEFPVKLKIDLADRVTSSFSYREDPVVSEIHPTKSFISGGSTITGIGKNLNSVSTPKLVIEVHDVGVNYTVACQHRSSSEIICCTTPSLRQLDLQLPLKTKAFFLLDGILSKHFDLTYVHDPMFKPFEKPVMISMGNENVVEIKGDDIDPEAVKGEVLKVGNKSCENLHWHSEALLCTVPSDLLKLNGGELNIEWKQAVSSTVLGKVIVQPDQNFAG

c-Met derived from dogs = target: T5, c-Met derived from dogs (dogs, UniProt Q75ZY9 25-935, limits assumed); assay: ELISA, cross-reactivity test with diluted M01
T5 construct: Antigen of the cross-reactivity ELISA; also called dog c-Met
T5 sequence (Q75ZY9 25-935 limits assumed): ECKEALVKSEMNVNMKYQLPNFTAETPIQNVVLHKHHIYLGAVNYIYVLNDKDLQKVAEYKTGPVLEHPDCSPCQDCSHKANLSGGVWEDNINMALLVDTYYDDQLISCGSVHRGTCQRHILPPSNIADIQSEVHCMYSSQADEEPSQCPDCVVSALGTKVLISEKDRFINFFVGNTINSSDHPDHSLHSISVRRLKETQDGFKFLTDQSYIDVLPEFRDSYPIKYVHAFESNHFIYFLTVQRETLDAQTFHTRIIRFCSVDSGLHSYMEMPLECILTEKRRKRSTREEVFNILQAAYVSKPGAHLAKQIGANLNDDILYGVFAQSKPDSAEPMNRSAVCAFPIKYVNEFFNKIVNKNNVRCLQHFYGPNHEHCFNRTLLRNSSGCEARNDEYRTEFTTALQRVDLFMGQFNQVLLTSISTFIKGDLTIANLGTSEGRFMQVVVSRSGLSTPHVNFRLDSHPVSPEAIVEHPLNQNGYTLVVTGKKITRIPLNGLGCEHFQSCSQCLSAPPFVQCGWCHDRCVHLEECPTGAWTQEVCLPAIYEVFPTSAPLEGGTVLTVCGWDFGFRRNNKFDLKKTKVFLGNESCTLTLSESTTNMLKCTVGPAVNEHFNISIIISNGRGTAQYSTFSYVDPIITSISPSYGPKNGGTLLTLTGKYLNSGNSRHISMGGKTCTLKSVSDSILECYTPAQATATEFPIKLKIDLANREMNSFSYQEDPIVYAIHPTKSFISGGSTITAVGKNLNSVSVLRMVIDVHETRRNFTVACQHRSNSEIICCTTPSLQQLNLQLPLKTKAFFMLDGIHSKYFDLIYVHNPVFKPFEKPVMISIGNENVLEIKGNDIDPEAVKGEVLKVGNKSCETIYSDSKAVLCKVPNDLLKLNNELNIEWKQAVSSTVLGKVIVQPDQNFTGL

recombinant human c-Met [3] = target: T1, recombinant human c-Met; assay: BLI, antibody as loading sample, human c-Met
[4] = target: T2, monkey c-Met (cynomolgus c-Met); assay: BLI, antibody as loading sample, monkey c-Met
[5] = test system: NCI-H441 human lung cancer xenograft; assay: NCI-H441 human lung cancer xenograft model; type: in vivo, BALB/c nude mice; settings: 3 mg/kg i.v. QW × 2 weeks
Description: NCI-H441 tumor cells (ATCC, Catalog No. HTB-174) were maintained in vitro in RPMI 1640 medium supplemented with 10% FBS and 1% antibiotic-antimycotic at 37°C and 5% CO2 in air. Tumor cells NCI-H441 were routinely passaged twice a week by treatment with trypsin-EDTA. The cells with exponential growth were harvested and counted for tumor inoculation.
Mice were randomly assigned to groups of 10 each, and tumor cells were inoculated into the mice according to the experimental conditions shown in Table 19 below. Specifically, NCI-H441 tumor cells (5 × 10^6 cells/mouse) were subcutaneously inoculated into the right flank of each mouse together with 0.2 mL of PBS containing Matrigel (1:1). Treatment was started on day 14 after inoculation, when the mean tumor volume reached 180 mm^3, and the treatment start date was set as day 0. This experiment was performed for 35 days.
Statistical analysis was performed on the data obtained 35 days after the start of the experiment to determine differences in tumor volume and tumor weight between groups. […] All data were analyzed using SPSS 29.0. p < 0.05 was considered statistically significant.

CC[C@H](C)[C@@H]([C@@H](CC(=O)N1CCC[C@H]1[C@H](OC)[C@@H](C)C(=O)N[C@H](C)[C@@H](O)c1ccccc1)OC)N(C)C(=O)[C@@H](NC(=O)[C@@H](NC)C(C)C)C(C)C [MMAE, monomethyl auristatin E, reference compound] (H-[NMeV]V[Dil][Dolaproine]-X1)
IC50 (T47D; 6 days incubation, read-out: IC50): 510 pM | IC50 (SNU-5; 144 h, SNU-5, 6 days incubation, read-out: IC50): 420 pM | IC50 (NCI-H1573; 144 h, NCI-H1573, 6 days incubation, read-out: IC50): 420 pM | IC50 (HT29; HT29, 6 days incubation, read-out: IC50): 140 pM | IC50 (NCI-H1975; 144 h, NCI-H1975, 6 days incubation, read-out: IC50): 300 pM

CC[C@@]1(O)C(=O)OCc2c1cc1n(c2=O)Cc2c-1nc1cc3c(c4c1c2[C@@H](NC(=O)[C@@H](C)O)CC4)OCO3 [PBX-7016]
IC50 (T47D): 450 pM | IC50 (SNU-5; SNU-5, 144 h): 5210 pM | IC50 (NCI-H1573; NCI-H1573, 144 h): 2550 pM | IC50 (HT29): 3800 pM | IC50 (NCI-H1975; NCI-H1975, 144 h): 9800 pM

B1: anti-c-Met antibody (M01) (antibody, human IgG1, kappa, V domains shown)
VH: QVQLVQSGAEVKKPGASVKVSCKASGYIFTAYTMHWVRQAPGQGLEWMGWIKPNNGLANYAQKFQGRVTMTRDTSISTAYMELSRLRSDDTAVYYCARSEITTEFDYWGQGTLVTVSS
VL: DIVMTQSPDSLAVSLGERATINCKSSESVDSYANSFLHWYQQKPGQPPKLLIYRASTRESGVPDRFSGSGSGTDFTLTISSLQAEDVAVYYCQQSKEDPLTFGGGTKVEIKR
notes: Naked antibody; also called M01 antibody; M01 (Anti-cMet mAb)
EC50 (recombinant human c-Met [1]): 140 pM | EC50 [2]: 140 pM | binding result (c-Met derived from mice): no binding | binding result (c-Met derived from rats): no binding | binding result (c-Met derived from dogs): no binding | Kd (recombinant human c-Met [3]): 605 pM | koff (recombinant human c-Met [3]): 4.07e-05 s⁻¹ | kon (recombinant human c-Met [3]): 67400 M⁻¹ s⁻¹ | Kd [4]: 707 pM | koff [4]: 5.69e-05 s⁻¹ | kon [4]: 80500 M⁻¹ s⁻¹

B2: P23-MMAE: isotype ADC: anti-influenza A antibody (Navivumab, P23) with monomethyl auristatin E payload; DAR 3.1 (conjugate, chains of the INN, looked up)
VH: QVQLVQSGAEVKKPGASVKVSCKTSGYSFSTYGVSWVRQAPGQGPEWVGWISAYTGITDYAQKFQGRVTLTTDATTATAFLDLRSLRPDDTATYFCARDKVQGRVEVGSGGRHDYWGQGTLVIVSS
VL: EVVLTQSPGTLALPPGERATLSCRASHRVGSTYIAWYQQKSGQAPRRLIYGASNRATDIPDRFSGSGSGTDFTLTIRRLEPEDSAVYYCQQFSVSPWTFGQGTRVEIK
modifications: MMAE payload, DAR 3.1
Tumor Volume ([5]; Day 0, mean ± SEM): 180 ± 13 mm^3 | Tumor Volume ([5]; Day 4, mean ± SEM): 208 ± 19 mm^3 | Tumor Volume ([5]; Day 7, mean ± SEM): 244 ± 26 mm^3 | Tumor Volume ([5]; Day 11, mean ± SEM): 283 ± 36 mm^3 | Tumor Volume ([5]; Day 14, mean ± SEM): 287 ± 39 mm^3 | Tumor Volume ([5]; Day 18, mean ± SEM): 358 ± 66 mm^3 | Tumor Volume ([5]; Day 21, mean ± SEM): 396 ± 71 mm^3 | Tumor Volume ([5]; Day 25, mean ± SEM): 563 ± 93 mm^3 | Tumor Volume ([5]; Day 28, mean ± SEM): 708 ± 119 mm^3 | Tumor Volume ([5]; Day 32, mean ± SEM): 977 ± 193 mm^3 | TGI ([5]; Day 35): 26.27% | Tumor Weight on Day 35 ([5]; Day 35): 1.342 ± 0.247 g | T/C ([5]; Day 35, tumor volume vs P23 isotype mAb group): 76.70% | T/Cweight ([5]; Day 35, tumor weight vs P23 isotype mAb group): 80.39%
